Assay results from paper PMC3536784 (PLoS ONE, 2013).

B1: biphenyl dioxygenase (BPDO_(B356)) β-subunit from Pandoraea pnomenusa B-356 (enzyme, UniProt Q46373 1-186, looked up)
chain: MISTPLSKEFEWPAKPVSLELQHQVEQFYYREAQLLDHHAFQAWFALLAEDIHYWMPIRTVRTAREQGLEYVPAGANAHFDDTHATMYGRIRQKTSDLNWAEDPPSRTRHLVSNVIVREMDTPGTLEVASAFLLYRSRLERQVDVFAGERRDVLRIADNPLGFQIAKRTIILDQSTVLANNLSVFF
notes: the final models include the complete β-subunit; Co-produced and co-purified with the α-subunit as the (αβ)3 oxygenase; three copies in the hexamer; also called β of BphAE; BPDO β; source: heterologously produced and purified anaerobically as described previously [17]
B2: biphenyl dioxygenase (BPDO_(B356)) α-subunit from Pandoraea pnomenusa B-356 (enzyme)
chain: MSSTMKDTQEAPVRWSRNWTPDAIRALVDQDNGKLDARIYADQDLYQLELERVFGRSWLMLGHETHIPKIGDYLTTYMGEDPVIMVRQKDQSIKVFLNQCRHRGMRIVRSDGGNAKAFTCTYHGWAYDIAGNLVNVPFEKEAFCDKKEGDCGFDKADWGPLQARVETYKGLVFANWDPEAPDLKTYLSDAMPYMDVMLDRTEAGTEAIGGIQKWVIPCNWKFAAEQFCSDMYHAGTMSHLSGVLAGLPPEMDLTQIQLSKNGNQFRSAWGGHGAGWFINDSSILLSVVGPKITQYWTQGPAAEKAARRVPQLPILDMFGQHMTVFPTCSFLPGINTIRTWHPRGPNEVEVWAFVLVDADAPEDIKEEFRLQNIRTFNAGGVFEQDDGENWVEIQRVMRGHKAKSTSLCAKMGLNVPNKNNPAYPGKTAYVYAEEAARGMYHHWSRMMSEPSWDTLKP
notes: Co-produced and co-purified with the β-subunit as the (αβ)3 oxygenase; three copies in the hexamer; Holds a Rieske Fe2S2 cluster and a mononuclear Fe(II); also called α of BphAE; source: heterologously produced and purified anaerobically as described previously [17]

Tests used:
[1] = target: the molecule itself; assay: crystal structure; crystals grown anaerobically by sitting drop vapor diffusion (citrate pH 5.8 or MES pH 6.0), space group R3, one αβ protomer in the asymmetric unit; three αβ protomers about the crystallographic three-fold axis form the (αβ)3 hexamer; without and with biphenyl
[2] = target: B2; assay: as above; conditions: both partners purified

Row | Binder | binding result [1] | binding result [2]
1 | B1 | binds | binds
2 | B2 | binds | 
